Reference: article PMC10682658, “Revisiting bacterial cytolethal distending toxin structure and function” (Frontiers in Cellular and Infection Microbiology, 2023)

T1: NTA-labeled Cj-CdtA (polyhistidine-tagged Cj-CdtA labelled with NTA fluorescent dye) (Campylobacter jejuni, UniProt A1VXG4 20-268, NTA - Atto 647 N dye on the polyhistidine-tagged subunit)
T1 construct: source: recombinant, generated and purified as previously described (Eshraghi et al., 2010)
T1 sequence: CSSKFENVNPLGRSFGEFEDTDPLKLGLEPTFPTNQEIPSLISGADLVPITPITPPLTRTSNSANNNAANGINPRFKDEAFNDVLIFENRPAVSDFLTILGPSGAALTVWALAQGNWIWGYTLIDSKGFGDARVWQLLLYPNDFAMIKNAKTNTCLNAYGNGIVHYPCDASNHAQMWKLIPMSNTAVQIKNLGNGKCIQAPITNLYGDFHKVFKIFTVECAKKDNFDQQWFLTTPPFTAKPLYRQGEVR

B1: unlabeled Cj-CdtA with the polyhistidine tag removed (natural protein)
chain: T1 sequence
notes: source: recombinant, generated and purified as previously described (Eshraghi et al., 2010); polyhistidine removed with biotinylated thrombin
B2: unlabeled Cj-CdtC with the polyhistidine tag removed (natural protein)
chain: TPTGDLKDFTEMVSIRSLETGIFLSAFRDTSKDPIDQNWNIKEIVLSDELKQKDKLADELPFGYVQFTNPKESDLCLAILEDGTFGAKSCQDDLKDGKLETVFSIMPTTTSAVQIRSLVLESDECIVTFFNPNIPIQKRFGIAPCTLDPIFFAEVNELMIITPPLTAATPLE
notes: as for B1

Assays:
[1] = target: T2, NTA-labeled Cj-CdtB (polyhistidine-tagged Cj-CdtB labelled with NTA fluorescent dye) (Campylobacter jejuni, UniProt Q0PC57 1-265, NTA - Atto 647 N dye on the polyhistidine-tagged subunit); experiment: MST; NTA dye-labeled polyhistidine-tagged subunit (0.1 μM) with unlabeled subunit without polyhistidine tag (0.02/0.04-20 μM), 1 h at 37°C, read at 37°C; Monolith NT.115; fraction bound fit to log [Cj-CDT subunit] vs response; KD of A + B* called apparent; details: both partners purified
T2 construct: source: recombinant, generated and purified as previously described (Eshraghi et al., 2010)

[2] = target: T1, NTA-labeled Cj-CdtA …; experiment: as above; details: both partners purified

Binder | Kd [1] [nM] | first concentration of titrant yielding detectable signal above background [1] [µM] | Kd [2] [nM] | first concentration of titrant yielding detectable signal above background [2] [µM]
B1 | > 20000 | 2 | – | –
B2 | 480 ± 100 | 0.15 | 650 ± 100 | 0.31
